B1: Cytochrome b5, P00171 (parent)
chain: MAEESSKAVKYYTLEEIQKHNNSKSTWLILHYKVYDLTKFLEEHPGGEEVLREQAGGDATENFEDVGHSTDARELSKTFIIGELHPDDRSKITKPSESIITTIDSNPSWWTNWLIPAISALFVALIYHLYTSEN

Variants of: B1
Conditions: Bos taurus, pH 7, Thermal, Absorbance, Sodium phosphate 100 mM, structure 1CYO, whole UniProt chain shown; for ddG of mutation (higher = less stable): 67.2 °C

| Variant | ddG of mutation (higher = less stable) | Tm | change of melting temperature, mutant - wild type (higher = more stable) | unfolding enthalpy (van 't Hoff) |
| --- | --- | --- | --- | --- |
| V66K | 9.79 kJ/mol | 58.5 °C | -8.7 °C | 364 kJ/mol |
| V66E | 4.6 kJ/mol | 63.2 °C | -4 °C | 390 kJ/mol |
| V66Y | 5.4 kJ/mol | 62.5 °C | -4.7 °C | 382 kJ/mol |
| V66H | 6.82 kJ/mol | 61.3 °C | -5.9 °C | 369 kJ/mol |

Source: FireProtDB (doi:10.1021/bi990893b)
